{"source": "paper PMC7378325", "target": "GFP-GABAB1b", "test": "FRET or BRET; two-photon FLIM; GFP donor, t-dimer DsRed acceptor; transfected rat spinal neurons in culture, fixed; treated with baclofen (10^-9 to 10^-3 M) or GABA (10^-4 M), with exogenous fibulin-2 protein (25 or 50 nM), co-transfected fibulin-2 or anti-fibulin-2 siRNA; mean FRET efficiency ± …"}
{"binder": "DsRed-GABAB2 (receptor) WTRGAPRPPPSSPPLSIMGLMPLTKEVAKGSIGRGVLPAVELAIEQIRNESLLRPYFLDLRLYDTECDNAKGLKAFYDAIKYGPNHLMVFGGVCPSVTSIIAESLQGWNLVQLSFAATTPVLADKKKYPYFFRTVPSDNAVNPAILKLLKHFRWRRVGTLTQDVQRFSEVRNDLTGVLYGEDIEISDTESFSNDPCTSVKKLKGNDVRIILGQFDQNMAAKVFCCAFEESMFGSKYQWIIPGWYEPAWWEQVHVEANSSRCLRRSLLAAMEGYIGVDFEPLSSKQIKTISGKTPQQFEREYNSKRSGVGPSKFHGYAYDGIWVIAKTLQRAMETLHASSRHQRIQDFNYTDHTLGKIILNAMNETNFFGVTGQVVFRNGERMGTIKFTQFQDSREVKVGEYNAVADTLEIINDTIRFQGSEPPKDKTIILEQLRKISLPLYSILSALTILGMIMASAFLFFNIKNRNQKLIKMSSPYMNNLIILGGMLSYASIFLFGLDGSFVSEKTFETLCTVRTWILTVGYTTAFGAMFAKTWRVHAIFKNVKMKKKIIKDQKLLVIVGGMLLIDLCILICWQAVDPLRRTVERYSMEPDPAGRDISIRPLLEHCENTHMTIWLGIVYAYKGLLMLFGCFLAWETRNVSIPALNDSKYIGMSVYNVGIMCIIGAAVSFLTRDQPNVQFCIVALVIIFCSTITLCLVFVPKLITLRTNPDAATQNRRFQFTQNQKKEDSKTSTSVTSVNQASTSRLEGLQSENHRLRMKITELDKDLEEVTMQLQDTPEKTTYIKQNHYQELNDILSLGNFTESTDGGKAILKNHLDQNPQLQWNTTEPSRTCKDPIEDINSPEHIQRRLSLQLPILHHAYLPSIGGVDASCVSPCVSPTASPRHRHVPPSFRVMVSGL", "values": [{"measurement": "FRET efficiency (baclofen 10^-6 M)", "result": 51.2, "unit": "%"}, {"measurement": "FRET efficiency (baclofen 10^-6 M, fibulin-2 co-transfected)", "result": 53, "unit": "%"}]}
